Assays:
Test in all cases: BRET (NanoLuc-miniG recruitment to plasma-membrane K-ras-YFP)
[1] = target: NES-NanoLuc-MiniG subtype miniG12; details: 500 ng receptor plasmid; parent: est. 0.020; read off a plot
[2] = target: NES-NanoLuc-MiniG subtype miniGi; details: 500 ng receptor plasmid; parent: est. -0.023; read off a plot
[3] = target: NES-NanoLuc-MiniG subtype miniGq; details: 500 ng receptor plasmid; parent: est. -0.030; read off a plot
[4] = target: NES-NanoLuc-MiniG subtype miniGs; details: 500 ng receptor plasmid; parent: est. 0.092; read off a plot

response [1]: 0.027 AU | response [2]: -0.013 AU | response [3]: -0.015 AU | response [4]: 0.011 AU
Sequence: G protein-coupled receptor 3 (GPR3), wild type (from UniProt P46089) DRY-mutant
